Source: PMC8604728
One block for each substance: values may come before it.

Experiments:
[1] = target: wild-type cholecystokinin A receptor (CCKAR) (UniProt P32238)
[2] = target: CCKAR I296G (UniProt P32238)
[3] = target: wild-type cholecystokinin A receptor (CCKAR) (UniProt P32238); remark: listed apart in the source

Substance: Gi heterotrimer of the BRET G-protein dissociation assay (from UniProt P63096 1-354; P62873 1-340; P59768 1-71) (complex)
pEC50 of CCK-8 in the BRET G-protein dissociation assay (Gβγ-Venus to GRK3ct-luciferase), cells with CCKAR and Gi (Supplementary Table 3, Receptor + Gi) [1]: 7.32

Substance: Gs heterotrimer of the BRET G-protein dissociation assay (from UniProt P63092 1-394; P62873 1-340; P59768 1-71) (complex)
pEC50 of CCK-8 in the BRET G-protein dissociation assay (Gβγ-Venus to GRK3ct-luciferase), cells with CCKAR and Gs (Supplementary Table 3, Receptor + Gs) [1]: 7.92

Continued, values first:

pEC50 of CCK-8, Gi-coupling activity by NanoBiT G-protein recruitment assay (CCKAR-LgBiT and SmBiT-Gβ1 in sf9 cells; Supplementary Table 4, I296G) [2]: 6.66 | pEC50 of CCK-8, Gi-coupling activity by NanoBiT G-protein recruitment assay (CCKAR-LgBiT and SmBiT-Gβ1 in sf9 cells; Supplementary Table 4, WT) [3]: 6.81
Substance: Gi heterotrimer of the NanoBiT G-protein recruitment assay (Gαi1, SmBiT-fused human Gβ1, human Gγ2) (from UniProt P63096 1-354; P62873 1-340; P59768 1-71) (complex)

pEC50 of CCK-8 in the BRET G-protein dissociation assay (Gβγ-Venus to GRK3ct-luciferase), cells with CCKAR and Gq (Supplementary Table 3, Receptor + Gq) [1]: 8.42 | pEC50 of CCK-8, Gq-coupling activity by BRET assay (Supplementary Table 4, I296G) [2]: 8.38 | pEC50 of CCK-8, Gq-coupling activity by BRET assay (Supplementary Table 4, WT) [3]: 9.14
Substance: Gq heterotrimer of the BRET G-protein dissociation assay (from UniProt P50148 1-359; P62873 1-340; P59768 1-71) (complex)

pEC50 of CCK-8, Gs-coupling activity by NanoBiT G-protein dissociation assay (Gαs-LgBiT and SmBiT-Gγ in HEK 293T/17 cells; Supplementary Table 4, I296G) [2]: 10.5 | pEC50 of CCK-8, Gs-coupling activity by NanoBiT G-protein dissociation assay (Gαs-LgBiT and SmBiT-Gγ in HEK 293T/17 cells; Supplementary Table 4, WT) [3]: 10.5
Substance: Gs heterotrimer of the NanoBiT G-protein dissociation assay (Gαs-LgBiT, Gβ, SmBiT-Gγ) (from UniProt P63092 1-394; P62873 1-340; P59768 1-71) (complex)
